Source: patent US11453711B2, “Fusion proteins of GLP-1 and GDF15 and conjugates thereof” (BEIJING QL BIOPHARMACEUTICAL CO., LTD., priority 2019, dated 2022)

Assays:
[1] = Body weight and food intake in lean C57BL/6 mice, lysine conjugated compounds, 15 nmol/kg daily sc 14 days; format: in vivo; conditions: for Body weight reduction at 15 nmol/kg (% reduction compared to vehicle)(Day11) / Cumulative food intake reduction at 15 nmol/kg (% reduction compared to vehicle)(Day11): C57 mice, 15 nmol/kg daily sc; for BW reduction: 15 nmol/kg daily sc 14 days, versus Semaglutide
Procedure: FIGS. 1A-1F show In vivo activities of fusion proteins. To evaluate the body weight and food intake effects of the fusion proteins, 10 week old male C57BL/6J mice were dosed everyday subcutaneously with 15 nmol/kg protein for 14 days. Food intake and body weight were measured daily. FIGS. 1A and 1B show body weight loss upon protein treatments from Day1 to Day15. […] FIGS. 1D and 1E show cumulative food intake with protein treatments from Day1 to Day15. […] Vehicle: 1.42 mg/mL disodium phosphate dihydrate, 14 mg/mL propylene glycol pH7.4. Data are expressed as mean values and standard error (SEM) for FIGS. 1A, 1B and 1C. n=5 for each treatment group. For FIGS. 1D, 1E and 1F, a pooled food intake was measured for each treatment group.
10 week old male C57BL/6 mice were injected everyday subcutaneously with 15 nmol/kg of the fusion protein conjugates (i.e., MLC002, MLC 004, MLC 005, MLC 006, MLC 007, MLC 008, and MLC 009) for 14 days. Food intake and body weight were measured daily and five animals were used for each treatment group. Body weight (BW) was monitored for each individual animal, but food intake for each group animals was measured together. Day 1 and Day 14 are first day and last day of molecule dosage. % BW loss=100*(BW on Day n-BW on Day 1)/(BW on Day 1). Cumulative food intake on Day n represents sum of food intake from Day 1 to Day n. Data are indicated as mean values and standard error (SEM) or pooled values. Statistical analysis was performed by One-way ANOVA. Body weight reduction on Day 11 is calculated by −1*(% BW loss−% BW loss of vehicle group); Cumulative food intake reduction is calculated by −100*(cumulative food intake-cumulative food intake of vehicle)/cumulative food intake of vehicle.

[2] = Body weight and food intake in C57BL/6 mice, fusion protein conjugates, 30 nmol/kg daily 10 days; format: in vivo
Summary of the method: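 Male C57BL/6 mice received fusion protein conjugates by daily subcutaneous injection, with dosing running from Day 1 to Day 10. Body weight was recorded daily per animal and food intake daily per group. Body weight reduction was expressed relative to vehicle percent loss from Day 1. Cumulative food intake reduction was expressed as percent decrease versus vehicle.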

[3] = Pharmacokinetic measurement in mouse, single sc dose 30 nmol/kg, plasma ELISA; conditions: for Cmax: read-out: Cmax (nmol/L), single sc dose 30 nmol/kg; for AUC0-24 h / Terminal t1/2 / Tmax: single sc dose 30 nmol/kg
Procedure: Each fusion protein was injected subcutaneously into C57BL/6 mice (n=3/group) once and plasma samples were collected at designed time points and analyzed by ELISA method. Plasma concentrations are indicated as mean values and standard error (SEM).
6-8 week old male C57BL/6 mice were administrated in a single subcutaneous dose of 30 nmol/kg of the fusion protein conjugates or unconjugated fusion proteins (i.e., MLC002, MLC004, MLC005, MLC006, MLC007, MLC008, MLC009, MLC013, MLC017, MLC047, MLC074, MLC075, MLC089, MLC093, MLC003 and MLC019) (n=3/group). Plasma samples were collected pre-dose (−5 min), 0.5 hr, 1 hr, 2 hr, 4 hr, 6 hr, 8 hr, 12 hr, 24 hr, 48 hr and 72 hr after the injection. The concentrations of the fusion protein conjugates in the plasma were measured by an ELISA assay which has immunoreactivity towards both GDF15 and intact N-terminal of GLP-1. Based on the graph showing plasma concentration of each protein versus time after subcutaneous injection, the pharmacokinetic parameters (including Tmax, Cmax, T1/2, AUC) were calculated by WinNonlin software.

[4] = PK study in non-human primates, single sc dose 5 nmol/kg, plasma ELISA; conditions: monkey, single sc dose 5 nmol/kg
Procedure: Plasma samples were collected pre-dose (−5 min), 2 hr, 4 hr, 6 hr, 8 hr, 24 hr, 48 hr, 72 hr, 96 hr, 120 hr, 144 hr, 216 hr, 288 hr, 360 hr, 432 hr and 504 hr after the injection. The concentrations of the fusion protein conjugates in the plasma were measured by an ELISA assay which has immunoreactivity towards both GDF15 and intact N-terminal of GLP-1. Based on the graph showing plasma concentration of each protein versus time after subcutaneous injection, the pharmacokinetic parameters (including Tmax, Cmax, T1/2, AUC) were calculated by WinNonlin software.

| Molecule | Body weight reduction at 15 nmol/kg (% reduction compared to vehicle)(Day11) [1] | Cumulative food intake reduction at 15 nmol/kg (% reduction compared to vehicle)(Day11) [1] | Body weight reduction at 30 nmol/kg (% reduction compared to vehicle)(Day11) [2] | Cumulative food intake reduction at 30 nmol/kg (% reduction compared to vehicle)(Day11) [2] | BW reduction [1] | Cmax [3] | AUC0-24 h [3] | Terminal t1/2 [3] | Tmax [3] | AUC0-96 h [4] | Terminal t1/2 [4] | Tmax [4] | Cmax ([4]; read-out: Cmax (nmol/L)) |
| --- | --- | --- | --- | --- | --- | --- | --- | --- | --- | --- | --- | --- | --- |
| Semaglutide [reference compound] | 7.2% | 23.2% | 2.6% | 20.9% | – | – | – | – | – | – | – | – | – |
| MLC007: fusion polypeptide SEQ ID NO: 254 conjugated with Moiety A at 1K of Linker (conjugate, Moiety A conjugated at linker K1) HGEGTFTSDVSSYLEEQAAREFIAWLVRGGGKQEPGQEPGQEPGQEPGQEPGQEPGQEPGQEPGAQPGAQPARQGDHCPLGPGRCCRLHTVRASLEDLGWADWVLSPREVQVTMCIGACPSQFRAANLHAQIKTSLHRLRPDTVPAPCCVPASYNPMVLIQRTDTGVSLQTYDDLLARDCHCI | 11.3% | 21.8% | – | – | statistically significantly enhanced BW loss efficacy than Semaglutide | 10.4 nmol/L | 63.8 nmol·h/L | 4.7 h | 0.5 h | – | – | – | – |
| MLC006: fusion polypeptide SEQ ID NO: 253 conjugated with Moiety A at 36K of GLP-1 (conjugate, Moiety A conjugated at K36) HGEGTFTSDVSSYLEEQAAREFIAWLVRGKGGQEPGQEPGQEPGQEPGQEPGQEPGQEPGQEPGAQPGAQPARQGDHCPLGPGRCCRLHTVRASLEDLGWADWVLSPREVQVTMCIGACPSQFRAANLHAQIKTSLHRLRPDTVPAPCCVPASYNPMVLIQRTDTGVSLQTYDDLLARDCHCI | 9.3% | 23.0% | – | – | – | 9.9 nmol/L | 71.9 nmol·h/L | 4.4 h | 2.7 h | – | – | – | – |
| MLC005: fusion polypeptide SEQ ID NO: 252 conjugated with Moiety A at 12K of Linker (conjugate, Moiety A conjugated at linker K12) HGEGTFTSDVSSYLEEQAAREFIAWLVRGGGGQEPGQEPGQEKGQEPGQEPGQEPGQEPGQEPGAQPGAQPARQGDHCPLGPGRCCRLHTVRASLEDLGWADWVLSPREVQVTMCIGACPSQFRAANLHAQIKTSLHRLRPDTVPAPCCVPASYNPMVLIQRTDTGVSLQTYDDLLARDCHCI | 12.6% | 9.1% | – | – | – | 16.7 nmol/L | 117.2 nmol·h/L | 4.2 h | 2.0 h | – | – | – | – |
| MLC009: fusion polypeptide SEQ ID NO: 256 conjugated with Moiety A at 15K of Linker (conjugate, Moiety A conjugated at linker K15) HGEGTFTSDVSSYLEEQAAREFIAWLVRGGGGQEPGQEPGQEPGQKPGQEPGQEPGQEPGQEPGAQPGAQPARQGDHCPLGPGRCCRLHTVRASLEDLGWADWVLSPREVQVTMCIGACPSQFRAANLHAQIKTSLHRLRPDTVPAPCCVPASYNPMVLIQRTDTGVSLQTYDDLLARDCHCI | 14.6% | 23.9% | – | – | statistically significantly enhanced BW loss efficacy than Semaglutide | 17 nmol/L | 157.8 nmol·h/L | 4.2 h | 3.3 h | – | – | – | – |
| MLC002: fusion polypeptide SEQ ID NO: 249 conjugated with Moiety A at 26K of GLP-1 (conjugate, Moiety A conjugated at K26) HGEGTFTSDVSSYLEEQAAKEFIAWLVRGGGGQEPGQEPGQEPGQEPGQEPGQEPGQEPGQEPGAQPGAQPARQGDHCPLGPGRCCRLHTVRASLEDLGWADWVLSPREVQVTMCIGACPSQFRAANLHAQIKTSLHRLRPDTVPAPCCVPASYNPMVLIQRTDTGVSLQTYDDLLARDCHCI | 5.0% | 7.5% | – | – | – | 4.6 nmol/L | 36.2 nmol·h/L | 5.0 h | 1.2 h | – | – | – | – |
| MLC008: fusion polypeptide SEQ ID NO: 255 conjugated with Moiety A at 6K of Linker (conjugate, Moiety A conjugated at linker K6) HGEGTFTSDVSSYLEEQAAREFIAWLVRGGGGQEPGKEPGQEPGQEPGQEPGQEPGQEPGQEPGAQPGAQPARQGDHCPLGPGRCCRLHTVRASLEDLGWADWVLSPREVQVTMCIGACPSQFRAANLHAQIKTSLHRLRPDTVPAPCCVPASYNPMVLIQRTDTGVSLQTYDDLLARDCHCI | 10.9% | 19.5% | – | – | – | 20.8 nmol/L | 82.2 nmol·h/L | 4.2 h | 0.7 h | – | – | – | – |
| MLC004: fusion polypeptide SEQ ID NO: 251 conjugated with Moiety A at 26K of GLP-1 (conjugate, Moiety A conjugated at K26) HGEGTFTSDVSSYLEEQAAKEFIAWLVRGGGGQEPGAQPGQEPGAQPGQEPGAQPGQEPGAQPGQEPGAQPGQEPGAQPGAQPGAQPGAQPGAQPGAQPGAQPGAQPGAQPARQGDHCPLGPGRCCRLHTVRASLEDLGWADWVLSPREVQVTMCIGACPSQFRAANLHAQIKTSLHRLRPDTVPAPCCVPASYNPMVLIQRTDTGVSLQTYDDLLARDCHCI | 13.9% | 21.8% | 18.3% | 35.0% | statistically significantly enhanced BW loss efficacy than Semaglutide | 15.1 nmol/L | 174.5 nmol·h/L | 7.4 h | 3.3 h | 790 nmol·h/L | 13 h | 8 h | 32.1 nmol/L |
